Results on 51 variants are retold here after the RNAGym collection of RNA variant scans (doi:10.1101/gr.219683.116).

B1: mRNA-splicing (parent)
chain: AGUUGCUGCUGGGAGCUCCAGCACAGUGAAAUGGACAGAAGGGCAGAGCAA

The variants in this series derive from B1. Put plainly: exon inclusion enrichment index; higher = more inclusion; WT1 exon 5 minigene, HEK293.
With AGUUCACACAGGGAGCUCCAGCACAGUGAAAUGGACAGAAGGGCCAAGCAA [G5C C6A U7C G8A U10A A45C G46A], the “exon inclusion enrichment index” value was found to be 0.0623.

With AGUUACCACACGGAGCUCCAGCACAGUGAAAUGGACAGAAGGGCAGAGCAA [G5A U7C G8A U10A G11C], the “exon inclusion enrichment index” value is 1.63.

For AGUUGACGACGGGAGCUCCAGCACACGGAAAUGGACAGAAGGGCAGAGCAA [C6A U7C C9A U10C G26C U27G], the “exon inclusion enrichment index” value amounted to 3.92.

AGUUACCACCGGGAGCUCCAGCACAGUGAAAUGGACAGAAGGAUAGAGCAA [G5A U7C G8A U10C G43A C44U]: the “exon inclusion enrichment index” value was determined as 2.57.

As to AGUUGACGACGAGAGCUCCAGCACAGUGAAAUGGACAGAAGGGCAGAGCAA [C6A U7C C9A U10C G12A], the “exon inclusion enrichment index” value came out at 3.18.

Regarding AGUUACCUCCGGGAGCUCCAGCACAGUGAAAUGGACAGAAGGGCAGAGCAA [G5A U7C G8U U10C], the “exon inclusion enrichment index” value came out at 1.92.

As for AGUUGCUGCUGGGAGCUCCAGCACAGUGAAAUGGACAGAAGGGCGCAGCAA [A45G G46C], the “exon inclusion enrichment index” value worked out at 0.331.

Regarding AGGAAUAUAUGGGAGCUCCAGCACAGUGAAAUGGACAGAAGGGCAGAGCAA [U3G U4A G5A C6U U7A G8U C9A], the “exon inclusion enrichment index” value worked out at 0.0777.

Take AGUUCGCGCUUGGAGCUCCAGCACAGUGAAAUGGACAGAAGGGCAGAGCAA [G5C C6G U7C G11U]: the “exon inclusion enrichment index” value turned out to be 2.67.

Consider AGUUACCACCGGGAGCUCCAUCACAGUGAAAUGGACAGAAGGGCAGAGCAA [G5A U7C G8A U10C G21U], for which the “exon inclusion enrichment index” value turned out to be 1.92.

Take AGUUCACACAGGGAGCUGGAGCACAGUGAAAUGGACAGAAGGGCAGAGCAA [G5C C6A U7C G8A U10A C18G C19G]: the “exon inclusion enrichment index” value stood at 0.186.

Consider AGUUGACGACGGGAGCUCCAGCACAGUGAAAUGGACGGAAGGGCAGAGCAA [C6A U7C C9A U10C A37G], for which the “exon inclusion enrichment index” value worked out at 4.15.

For AGUUGCUGCUGGGAGCUCCAGCACAGUGAAAUGGACAGAAGGGUGGAGCAA [C44U A45G], the “exon inclusion enrichment index” value was 0.0801.

AGUUAUAUAUGGGAGCUCCAGCACAGUGAAAUGGACAAGAGGGCAGAGCAA [G5A C6U U7A G8U C9A G38A A39G]: the “exon inclusion enrichment index” value turned out to be 0.0704.

On to AGUUACCACCGGGAGCUCGCGCACAGUGAAAUGGACAGAAGGGCAGAGCAA [G5A U7C G8A U10C C19G A20C], for which the “exon inclusion enrichment index” value was determined as 2.4.

As for AGUUGACGACGGGAGCAGCAGCACAGUGAAAUGGACAGAAGGGCAGAGCAA [C6A U7C C9A U10C U17A C18G], the “exon inclusion enrichment index” value is 2.68.

On to AGUUGCUGCUGGGAGCUCCAGCACAGGGAAAUGGACAGAAGGGCAGAGCAA [U27G], for which the “exon inclusion enrichment index” value worked out at 0.0622.

On to AGUUCGCGCCGGGAGAGCCAGCACAGUGAAAUGGACAGAAGGGCAGAGCAA [G5C C6G U7C U10C C16A U17G], for which the “exon inclusion enrichment index” value was found to be 3.25.

As for AGUUAUAUAUGGGAGCUCCAGCACAGUGCUAUGGACAGAAGGGCAGAGCAA [G5A C6U U7A G8U C9A A29C A30U], the “exon inclusion enrichment index” value was found to be 0.0308.

AGUUAUAUAUGGGAGCUCCAGCACAGUGAAAUGGACAGAAUCGCAGAGCAA [G5A C6U U7A G8U C9A G41U G42C]: the “exon inclusion enrichment index” value amounted to 0.226.

For AGUUGACGACGGGAGCUCCAGCACAGUGAUGUGGACAGAAGGGCAGAGCAA [C6A U7C C9A U10C A30U A31G], the “exon inclusion enrichment index” value was 3.73.

In the case of AGUUACCACCGGGAGCUCCAGCACAGUGAAAUGGAGGGAAGGGCAGAGCAA [G5A U7C G8A U10C C36G A37G], the “exon inclusion enrichment index” value came out at 0.405.

For the variant AGUUAGGGAUGGGAGCUCCAGAUCAGUGAAAUGGACAGAAGGGCAGAGCAA [G5A C6G U7G C9A C22A A23U], the “exon inclusion enrichment index” value stood at 0.00131.

Consider AGUUCACACCCGGAGCUCCAGCACAGUGAAAUGGACAGAAGGGCAGAGCAA [G5C C6A U7C G8A U10C G11C], for which the “exon inclusion enrichment index” value is 1.58.

AGUUGACGACGGGAACUCCAGCACAGUGAAAUGGACAGAAGGGCAGAGCAA [C6A U7C C9A U10C G15A]: the “exon inclusion enrichment index” value was determined as 3.34.

Consider AGUUGACGACGGGAGCUCCAGCACAGUAUAAUGGACAGAAGGGCAGAGCAA [C6A U7C C9A U10C G28A A29U], for which the “exon inclusion enrichment index” value came out at 1.29.

As to AGUUACCACCGGGAGCUCCAGCACAGUGAAAUGGUGAGAAGGGCAGAGCAA [G5A U7C G8A U10C A35U C36G], the “exon inclusion enrichment index” value turned out to be 0.19.

As for AGUUCUUCUCGGGAGCUCCAGGACAGUGAAAUGGACAGAAGGGCAGAGCAA [G5C C6U G8C C9U U10C C22G], the “exon inclusion enrichment index” value came to 2.51.

As for AACUCACACAGGGAGCUCCAGCACAGUGAAAUGGACAGAAGGGCAGAGCAA [G2A U3C G5C C6A U7C G8A U10A], the “exon inclusion enrichment index” value was determined as 0.124.

With AGUUCGCGCCGGGAGCUCCUACACAGUGAAAUGGACAGAAGGGCAGAGCAA [G5C C6G U7C U10C A20U G21A], the “exon inclusion enrichment index” value is 2.15.

With AGUUCGCGCCGGGAGCUCCAGCACAGUGAAAUGGACAGAAGGGCAGUUCAA [G5C C6G U7C U10C A47U G48U], the “exon inclusion enrichment index” value turned out to be 3.16.

For the variant AGUUGCUGCUGGGAGCUCCAGCACAGUGAAAUGGACACUAGGGCAGAGCAA [G38C A39U], the “exon inclusion enrichment index” value was 0.00812.

For the variant AGUUGCUGCUGGGAGCUCCAGCACAGUGAAAUGGACAGAAGGGCGGAGCAA [A45G], the “exon inclusion enrichment index” value turned out to be 0.486.

Turning to AGUUCACACAGGGAGCUCCAGCAGUGUGAAAUGGACAGAAGGGCAGAGCAA [G5C C6A U7C G8A U10A C24G A25U], the “exon inclusion enrichment index” value was 0.184.

In the case of AGUUCGCGCCGGGAGCUCCAGCACAGUGAAAUAUACAGAAGGGCAGAGCAA [G5C C6G U7C U10C G33A G34U], the “exon inclusion enrichment index” value is 0.979.

Take AGUUAUAUAUGGAGGCUCCAGCACAGUGAAAUGGACAGAAGGGCAGAGCAA [G5A C6U U7A G8U C9A G13A A14G]: the “exon inclusion enrichment index” value was found to be 0.0895.

In the case of AGUUUUAUUUGGGAGCUCCAGCACAGUGAAAUGGACAGAAGGGCAGAGCAA [G5U C6U U7A G8U C9U], the “exon inclusion enrichment index” value was 0.0321.

Consider AGUUCUUCAUGGGAGCUCCAGCACAGUGAAAUGGACAGAAGGGCAGAGCAA [G5C C6U G8C C9A], for which the “exon inclusion enrichment index” value is 1.7.

In the case of AGUUUCUUUGAGGAGCUCCAGCACAGUGAAAUGGACAGAAGGGCAGAGCAA [G5U G8U C9U U10G G11A], the “exon inclusion enrichment index” value was 0.429.

With AGUUCGCGCCGGGAGCUCCAGCACAACGAAAUGGACAGAAGGGCAGAGCAA [G5C C6G U7C U10C G26A U27C], the “exon inclusion enrichment index” value worked out at 4.94.

Consider AGUUGAAGAAGGGAGCUCCAGCAAUGUGAAAUGGACAGAAGGGCAGAGCAA [C6A U7A C9A U10A C24A A25U], for which the “exon inclusion enrichment index” value worked out at 0.754.

Turning to AGGCAUAUAUGGGAGCUCCAGCACAGUGAAAUGGACAGAAGGGCAGAGCAA [U3G U4C G5A C6U U7A G8U C9A], the “exon inclusion enrichment index” value worked out at 0.122.

On to AGUUAGGGAUUUGAGCUCCAGCACAGUGAAAUGGACAGAAGGGCAGAGCAA [G5A C6G U7G C9A G11U G12U], for which the “exon inclusion enrichment index” value came to 0.000733.

AGUUGACGACGGGAGCUCCAGCACAGUGACGUGGACAGAAGGGCAGAGCAA [C6A U7C C9A U10C A30C A31G]: the “exon inclusion enrichment index” value is 3.94.

AGUUACCAUGGGGAGCUCCAGCACAGUGAAAUGGACAGAAGGGCAGAGCAA [G5A U7C G8A C9U U10G]: the “exon inclusion enrichment index” value was determined as 0.887.

Regarding AGUUCUUCUCGGGAGCUCCAGCACAGUGAAAUUGACAGAAGGGCAGAGCAA [G5C C6U G8C C9U U10C G33U], the “exon inclusion enrichment index” value is 0.658.

As for AGUUGACGACGCAAGCUCCAGCACAGUGAAAUGGACAGAAGGGCAGAGCAA [C6A U7C C9A U10C G12C G13A], the “exon inclusion enrichment index” value came out at 2.55.

For the variant AGUUUCUUUUGGGAGCUCCAGCACAGUGAAAUGGACAGAAGGGCAGAUCAA [G5U G8U C9U G48U], the “exon inclusion enrichment index” value came to 0.22.

As to AGUUAGGGAUGGGAGCUCCAGCACAUAGAAAUGGACAGAAGGGCAGAGCAA [G5A C6G U7G C9A G26U U27A], the “exon inclusion enrichment index” value turned out to be 0.00104.

As to AGUUGCUGCUGGGAGCUCCAGCACAGUGAAAUGGACAGAAGGGCAUGGCAA [G46U A47G], the “exon inclusion enrichment index” value was 0.116.

In the case of AGUUGACGACGGGAGCUCCAGCACAGUGAAAUGGACAGAAGACCAGAGCAA [C6A U7C C9A U10C G42A G43C], the “exon inclusion enrichment index” value worked out at 4.49.
